Test results from IntAct's records for PubMed 35107372.

B1: Nucleolar RNA helicase 2 (Homo sapiens), Q9NR30 (parent)
chain: MPGKLRSDAGLESDTAMKKGETLRKQTEEKEKKEKPKSDKTEEIAEEEETVFPKAKQVKKKAEPSEVDMNSPKSKKAKKKEEPSQNDISPKTKSLRKKKEPIEKKVVSSKTKKVTKNEEPSEEEIDAPKPKKMKKEKEMNGETREKSPKLKNGFPHPEPDCNPSEAASEESNSEIEQEIPVEQKEGAFSNFPISEETIKLLKGRGVTFLFPIQAKTFHHVYSGKDLIAQARTGTGKTFSFAIPLIEKLHGELQDRKRGRAPQVLVLAPTRELANQVSKDFSDITKKLSVACFYGGTPYGGQFERMRNGIDILVGTPGRIKDHIQNGKLDLTKLKHVVLDEVDQMLDMGFADQVEEILSVAYKKDSEDNPQTLLFSATCPHWVFNVAKKYMKSTYEQVDLIGKKTQKTAITVEHLAIKCHWTQRAAVIGDVIRVYSGHQGRTIIFCETKKEAQELSQNSAIKQDAQSLHGDIPQKQREITLKGFRNGSFGVLVATNVAARGLDIPEVDLVIQSSPPKDVESYIHRSGRTGRAGRTGVCICFYQHKEEYQLVQVEQKAGIKFKRIGVPSATEIIKASSKDAIRLLDSVPPTAISHFKQSAEKLIEEKGAVEALAAALAHISGATSVDQRSLINSNVGFVTMILQCSIEMPNISYAWKELKEQLGEEIDSKVKGMVFLKGKLGVCFDVPTASVTEIQEKWHDSRRWQLSVATEQPELEGPREGYGGFRGQREGSRGFRGQRDGNRRFRGQREGSRGPRGQRSGGGNKSNRSQNKGQKRSFSKAFGQ

Variants of: B1
Conditions: with ncap_sars2 N

For S375L;A376E, which “effect of a mutation on the interaction” value is on record?
Its value is “with no effect”.

With D339H;E340G as the variant, how does the “effect of a mutation on the interaction” value read?
Its value is “with no effect”.
